This assay has as its target purified RSV F glycoprotein (respiratory syncytial virus). Description: ELISA on purified F glycoprotein, control Fab. Conditions: scale: reciprocal dilution. (In general: ELISA stands for enzyme-linked immunosorbent assay.)

The values that follow come from US20040005324A1.

Sequence of purified RSV F glycoprotein (respiratory syncytial virus) (P12568 26-109, chain 1 of 2): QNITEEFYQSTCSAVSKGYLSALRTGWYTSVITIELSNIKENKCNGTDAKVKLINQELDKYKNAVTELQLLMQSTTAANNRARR
Sequence of purified RSV F glycoprotein (respiratory syncytial virus) (P12568 137-574, chain 2 of 2): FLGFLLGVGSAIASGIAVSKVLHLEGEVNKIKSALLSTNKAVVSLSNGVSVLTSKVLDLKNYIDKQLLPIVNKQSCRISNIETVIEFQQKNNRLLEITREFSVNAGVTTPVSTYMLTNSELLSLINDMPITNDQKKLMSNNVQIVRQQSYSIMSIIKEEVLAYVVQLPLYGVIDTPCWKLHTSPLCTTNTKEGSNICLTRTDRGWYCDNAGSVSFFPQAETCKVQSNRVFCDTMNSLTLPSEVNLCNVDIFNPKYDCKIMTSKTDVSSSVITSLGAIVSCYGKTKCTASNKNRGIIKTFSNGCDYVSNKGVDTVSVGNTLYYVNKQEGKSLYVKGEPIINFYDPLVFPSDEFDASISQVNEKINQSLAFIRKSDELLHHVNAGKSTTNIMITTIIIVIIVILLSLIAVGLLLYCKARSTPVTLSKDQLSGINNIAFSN

With hepatitis B Fab, the ELISA titer stood at 2.
